Results: patent publication US20250262210A1 (TRUSTEES OF COLUMBIA UNIVERSITY IN THE CITY OF NEW YORK, published 2025)

T1: LZTR1-FLAG (human, UniProt Q8N653 1-840)
T1 construct: Expressed in HEK 293T, HeLa or U87 cells; used as cell lysate; also called LZTR1 wild type-FLAG; LZTR1 WT; not shown: FLAG tag at the C-terminus
T1 sequence (looked up): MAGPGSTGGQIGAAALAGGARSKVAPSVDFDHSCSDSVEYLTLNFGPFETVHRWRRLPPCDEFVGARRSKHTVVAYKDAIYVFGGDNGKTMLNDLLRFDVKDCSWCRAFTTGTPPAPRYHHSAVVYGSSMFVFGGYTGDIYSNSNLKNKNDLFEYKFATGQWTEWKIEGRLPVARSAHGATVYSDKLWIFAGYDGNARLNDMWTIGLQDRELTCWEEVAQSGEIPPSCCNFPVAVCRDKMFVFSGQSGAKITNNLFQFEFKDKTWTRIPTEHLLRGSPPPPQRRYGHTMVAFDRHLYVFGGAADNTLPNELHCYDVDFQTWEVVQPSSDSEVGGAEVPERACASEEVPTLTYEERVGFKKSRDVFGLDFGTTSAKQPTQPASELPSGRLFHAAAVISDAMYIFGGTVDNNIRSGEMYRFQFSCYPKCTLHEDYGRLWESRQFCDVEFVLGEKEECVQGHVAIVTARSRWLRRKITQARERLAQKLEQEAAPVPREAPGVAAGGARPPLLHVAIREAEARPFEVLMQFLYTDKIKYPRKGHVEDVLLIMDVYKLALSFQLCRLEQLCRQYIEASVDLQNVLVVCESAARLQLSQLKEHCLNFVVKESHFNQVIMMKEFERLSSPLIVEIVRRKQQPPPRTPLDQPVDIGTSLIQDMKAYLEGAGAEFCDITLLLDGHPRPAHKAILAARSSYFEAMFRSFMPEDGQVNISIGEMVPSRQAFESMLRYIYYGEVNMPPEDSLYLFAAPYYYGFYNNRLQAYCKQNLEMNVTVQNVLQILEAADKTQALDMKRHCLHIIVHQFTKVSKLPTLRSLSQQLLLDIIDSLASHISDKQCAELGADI

T2: LZTR1 R810W-FLAG (human, UniProt Q8N653 1-840)
T2 construct: Stably expressed in U87 cells by lentivirus; also called LZTR1-FLAG-R810W; LZTR1 RW; not shown: FLAG tag
T2 sequence (looked up): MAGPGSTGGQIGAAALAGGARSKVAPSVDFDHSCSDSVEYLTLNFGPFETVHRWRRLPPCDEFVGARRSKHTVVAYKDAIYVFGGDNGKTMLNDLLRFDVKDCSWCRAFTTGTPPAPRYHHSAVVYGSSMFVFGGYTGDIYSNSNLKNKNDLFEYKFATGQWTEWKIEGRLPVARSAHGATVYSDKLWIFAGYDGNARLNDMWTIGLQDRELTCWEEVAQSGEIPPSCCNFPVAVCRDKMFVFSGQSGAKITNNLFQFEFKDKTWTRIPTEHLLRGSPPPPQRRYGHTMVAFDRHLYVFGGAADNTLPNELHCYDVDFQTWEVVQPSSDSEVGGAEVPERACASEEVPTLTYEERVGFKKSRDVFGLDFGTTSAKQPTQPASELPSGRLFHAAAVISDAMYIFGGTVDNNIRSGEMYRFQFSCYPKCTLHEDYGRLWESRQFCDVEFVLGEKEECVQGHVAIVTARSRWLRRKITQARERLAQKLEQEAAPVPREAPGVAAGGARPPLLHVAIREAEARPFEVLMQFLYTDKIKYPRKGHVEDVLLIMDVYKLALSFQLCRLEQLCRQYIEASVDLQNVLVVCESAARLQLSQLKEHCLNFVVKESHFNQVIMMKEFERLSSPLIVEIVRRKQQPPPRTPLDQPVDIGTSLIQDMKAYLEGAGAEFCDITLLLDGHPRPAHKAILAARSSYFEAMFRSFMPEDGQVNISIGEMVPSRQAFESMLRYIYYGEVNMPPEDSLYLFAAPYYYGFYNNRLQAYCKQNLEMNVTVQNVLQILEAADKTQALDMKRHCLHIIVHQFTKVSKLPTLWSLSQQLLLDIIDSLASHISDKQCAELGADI


How the values were obtained:
[1] = target: T1, LZTR1-FLAG; assay: IP/MS, LZTR1 wild type-FLAG, U87
Outline: (§1)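 Read-out: spectral counts from LC-MS/MS (Orbitrap Fusion) after MaxQuant identification. Variable modifications were Met oxidation, protein N-terminal acetylation and N/Q deamidation.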

[2] = target: T2, LZTR1 R810W-FLAG; assay: IP/MS, LZTR1 R810W-FLAG, U87
Outline: as §1

Binder | binding result [1] | binding result [2]
GBE1 (other, human, UniProt Q04446 2-702, looked up) AAPMTPAARPEDYEAALNAALADVPELARLLEIDPYLKPYAVDFQRRYKQFSQILKNIGENEGGIDKFSRGYESFGVHRCADGGLYCKEWAPGAEGVFLTGDFNGWNPFSYPYKKLDYGKWELYIPPKQNKSVLVPHGSKLKVVITSKSGEILYRISPWAKYVVREGDNVNYDWIHWDPEHSYEFKHSRPKKPRSLRIYESHVGISSHEGKVASYKHFTCNVLPRIKGLGYNCIQLMAIMEHAYYASFGYQITSFFAASSRYGTPEELQELVDTAHSMGIIVLLDVVHSHASKNSADGLNMFDGTDSCYFHSGPRGTHDLWDSRLFAYSSWEILRFLLSNIRWWLEEYRFDGFRFDGVTSMLYHHHGVGQGFSGDYSEYFGLQVDEDALTYLMLANHLVHTLCPDSITIAEDVSGMPALCSPISQGGGGFDYRLAMAIPDKWIQLLKEFKDEDWNMGDIVYTLTNRRYLEKCIAYAESHDQALVGDKSLAFWLMDAEMYTNMSVLTPFTPVIDRGIQLHKMIRLITHGLGGEGYLNFMGNEFGHPEWLDFPRKGNNESYHYARRQFHLTDDDLLRYKFLNNFDRDMNRLEERYGWLAAPQAYVSEKHEGNKIIAFERAGLLFIFNFHPSKSYTDYRVGTALPGKFKIVLDSDAAEYGGHQRLDHSTDFFSEAFEHNGRPYSLLVYIPSRVALILQNVDLPN | binds | binds
GLE1 (other, human, UniProt Q53GS7 1-698, looked up) MPSEGRCWETLKALRSSDKGRLCYYRDWLLRREDVLEECMSLPKLSSYSGWVVEHVLPHMQENQPLSETSPSSTSASALDQPSFVPKSPDASSAFSPASPATPNGTKGKDESQHTESMVLQSSRGIKVEGCVRMYELVHRMKGTEGLRLWQEEQERKVQALSEMASEQLKRFDEWKELKQHKEFQDLREVMEKSSREALGHQEKLKAEHRHRAKILNLKLREAEQQRVKQAEQERLRKEEGQIRLRALYALQEEMLQLSQQLDASEQHKALLKVDLAAFQTRGNQLCSLISGIIRASSESSYPTAESQAEAERALREMRDLLMNLGQEITRACEDKRRQDEEEAQVKLQEAQMQQGPEAHKEPPAPSQGPGGKQNEDLQVKVQDITMQWYQQLQDASMQCVLTFEGLTNSKDSQAKKIKMDLQKAATIPVSQISTIAGSKLKEIFDKIHSLLSGKPVQSGGRSVSVTLNPQGLDFVQYKLAEKFVKQGEEEVASHHEAAFPIAVVASGIWELHPRVGDLILAHLHKKCPYSVPFYPTFKEGMALEDYQRMLGYQVKDSKVEQQDNFLKRMSGMIRLYAAIIQLRWPYGNRQEIHPHGLNHGWRWLAQILNMEPLSDVTATLLFDFLEVCGNALMKQYQVQFWKMLILIKEDYFPRIEAITSSGQMGSFIRLKQFLEKCLQHKDIPVPKGFLTSSFWRS | binds | binds
GMPPA (other, human, UniProt Q96IJ6 1-420, looked up) MLKAVILIGGPQKGTRFRPLSFEVPKPLFPVAGVPMIQHHIEACAQVPGMQEILLIGFYQPDEPLTQFLEAAQQEFNLPVRYLQEFAPLGTGGGLYHFRDQILAGSPEAFFVLNADVCSDFPLSAMLEAHRRQRHPFLLLGTTANRTQSLNYGCIVENPQTHEVLHYVEKPSTFISDIINCGIYLFSPEALKPLRDVFQRNQQDGQLEDSPGLWPGAGTIRLEQDVFSALAGQGQIYVHLTDGIWSQIKSAGSALYASRLYLSRYQDTHPERLAKHTPGGPWIRGNVYIHPTAKVAPSAVLGPNVSIGKGVTVGEGVRLRESIVLHGATLQEHTCVLHSIVGWGSTVGRWARVEGTPSDPNPNDPRARMDSESLFKDGKLLPAITILGCRVRIPAEVLILNSIVLPHKELSRSFTNQIIL | binds | binds
GPD2 (other, human, UniProt P43304 43-727, looked up) ADCISEPVNREPPSREAQLLTLQNTSEFDILVIGGGATGSGCALDAVTRGLKTALVERDDFSSGTSSRSTKLIHGGVRYLQKAIMKLDIEQYRMVKEALHERANLLEIAPHLSAPLPIMLPVYKWWQLPYYWVGIKLYDLVAGSNCLKSSYVLSKSRALEHFPMLQKDKLVGAIVYYDGQHNDARMNLAIALTAARYGAATANYMEVVSLLKKTDPQTGKVRVSGARCKDVLTGQEFDVRAKCVINATGPFTDSVRKMDDKDAAAICQPSAGVHIVMPGYYSPESMGLLDPATSDGRVIFFLPWQKMTIAGTTDTPTDVTHHPIPSEEDINFILNEVRNYLSCDVEVRRGDVLAAWSGIRPLVTDPKSADTQSISRNHVVDISESGLITIAGGKWTTYRSMAEDTINAAVKTHNLKAGPSRTVGLFLQGGKDWSPTLYIRLVQDYGLESEVAQHLAATYGDKAFEVAKMASVTGKRWPIVGVRLVSEFPYIEAEVKYGIKEYACTAVDMISRRTRLAFLNVQAAEEALPRIVELMGRELNWDDYKKQEQLETARKFLYYEMGYKSRSEQLTDRSEISLLPSDIDRYKKRFHKFDADQKGFITIVDVQRVLESINVQMDENTLHEILNEVDLNKNGQVELNEFLQLMSAIQKGRVSGSRLAILMKTAEENLDRRVPIPVDRSCGGL | binds | binds
GUCY1B1 (other, human, UniProt Q02153 1-619, looked up) MYGFVNHALELLVIRNYGPEVWEDIKKEAQLDEEGQFLVRIIYDDSKTYDLVAAASKVLNLNAGEILQMFGKMFFVFCQESGYDTILRVLGSNVREFLQNLDALHDHLATIYPGMRAPSFRCTDAEKGKGLILHYYSEREGLQDIVIGIIKTVAQQIHGTEIDMKVIQQRNEECDHTQFLIEEKESKEEDFYEDLDRFEENGTQESRISPYTFCKAFPFHIIFDRDLVVTQCGNAIYRVLPQLQPGNCSLLSVFSLVRPHIDISFHGILSHINTVFVLRSKEGLLDVEKLECEDELTGTEISCLRLKGQMIYLPEADSILFLCSPSVMNLDDLTRRGLYLSDIPLHDATRDLVLLGEQFREEYKLTQELEILTDRLQLTLRALEDEKKKTDTLLYSVLPPSVANELRHKRPVPAKRYDNVTILFSGIVGFNAFCSKHASGEGAMKIVNLLNDLYTRFDTLTDSRKNPFVYKVETVGDKYMTVSGLPEPCIHHARSICHLALDMMEIAGQVQVDGESVQITIGIHTGEVVTGVIGQRMPRYCLFGNTVNLTSRTETTGEKGKINVSEYTYRCLMSPENSDPQFHLEHRGPVSMKGKKEPMQVWFLSRKNTGTEETKQDDD | binds | binds
IFI16 (other, human, UniProt Q16666 1-785, looked up) MGKKYKNIVLLKGLEVINDYHFRMVKSLLSNDLKLNLKMREEYDKIQIADLMEEKFRGDAGLGKLIKIFEDIPTLEDLAETLKKEKLKVKGPALSRKRKKEVDATSPAPSTSSTVKTEGAEATPGAQKRKKSTKEKAGPKGSKVSEEQTQPPSPAGAGMSTAMGRSPSPKTSLSAPPNSSSTENPKTVAKCQVTPRRNVLQKRPVIVKVLSTTKPFEYETPEMEKKIMFHATVATQTQFFHVKVLNTSLKEKFNGKKIIIISDYLEYDSLLEVNEESTVSEAGPNQTFEVPNKIINRAKETLKIDILHKQASGNIVYGVFMLHKKTVNQKTTIYEIQDDRGKMDVVGTGQCHNIPCEEGDKLQLFCFRLRKKNQMSKLISEMHSFIQIKKKTNPRNNDPKSMKLPQEQRQLPYPSEASTTFPESHLRTPQMPPTTPSSSFFTKKSEDTISKMNDFMRMQILKEGSHFPGPFMTSIGPAESHPHTPQMPPSTPSSSFLTTKSEDTISKMNDFMRMQILKEGSHFPGPFMTSIGPAESHPHTPQMPPSTPSSSFLTTLKPRLKTEPEEVSIEDSAQSDLKEVMVLNATESFVYEPKEQKKMFHATVATENEVFRVKVFNIDLKEKFTPKKIIAIANYVCRNGFLEVYPFTLVADVNADRNMEIPKGLIRSASVTPKINQLCSQTKGSFVNGVFEVHKKNVRGEFTYYEIQDNTGKMEVVVHGRLTTINCEEGDKLKLTCFELAPKSGNTGELRSVIHSHIKVIKTRKNKKDILNPDSSMETSPDFFF | binds | binds
